Test results taken from PMC9261887.

Molecular target: Human angiotensin-converting enzyme 2 ectodomain (amino acids 20-613) with C-terminal E5 coil tag, p (human) (UniProt Q9BYF1)
Test: SPR

Sequence of Human angiotensin-converting enzyme 2 ectodomain (amino acids 20-613) with C-terminal E5 coil tag, p (human) (Q9BYF1 20-613): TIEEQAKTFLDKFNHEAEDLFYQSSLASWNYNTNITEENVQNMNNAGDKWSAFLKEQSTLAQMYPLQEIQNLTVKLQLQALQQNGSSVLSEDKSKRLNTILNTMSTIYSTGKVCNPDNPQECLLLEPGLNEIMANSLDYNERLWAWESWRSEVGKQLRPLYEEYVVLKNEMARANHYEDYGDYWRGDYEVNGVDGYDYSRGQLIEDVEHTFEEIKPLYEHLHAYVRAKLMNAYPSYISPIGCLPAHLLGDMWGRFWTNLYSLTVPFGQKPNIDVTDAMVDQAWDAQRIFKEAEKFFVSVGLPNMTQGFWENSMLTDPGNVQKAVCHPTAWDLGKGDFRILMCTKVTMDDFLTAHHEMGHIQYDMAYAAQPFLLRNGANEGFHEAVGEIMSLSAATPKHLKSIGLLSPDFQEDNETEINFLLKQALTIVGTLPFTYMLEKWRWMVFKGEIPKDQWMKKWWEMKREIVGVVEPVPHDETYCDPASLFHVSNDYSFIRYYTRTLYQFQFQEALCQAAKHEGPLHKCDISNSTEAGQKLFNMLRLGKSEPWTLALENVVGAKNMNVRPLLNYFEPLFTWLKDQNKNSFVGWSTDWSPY

| Substance | dH |
| --- | --- |
| SARS-CoV-2 spike protein receptor binding domain (RBD 319-541), Beta B.1.351 (from UniProt P0DTC2 319-541) (domain or fragment) | -64 kJ/mol |
| SARS-CoV-2 spike protein receptor binding domain (RBD 319-541), Alpha B.1.1.7 (from UniProt P0DTC2 319-541) (domain or fragment) | -73 kJ/mol |
| SARS-CoV-2 spike protein receptor binding domain (RBD 319-541), Kappa B.1.617.1 (from UniProt P0DTC2 319-541) (domain or fragment) | -40 kJ/mol |
| SARS-CoV-2 spike protein receptor binding domain (RBD 319-541), Omicron B.1.1.529 (from UniProt P0DTC2 319-541) (domain or fragment) | -71 kJ/mol |
| SARS-CoV-2 spike protein receptor binding domain (RBD 319-541), Delta B.1.617.2 (from UniProt P0DTC2 319-541) (domain or fragment) | -45.6 kJ/mol |
